Experiments:
CD8+ T cells = assay: CD8+ T-cell proliferation assay (co-culture with cDC1); type: cell-based, mouse; conditions: 5 µM added daily
Procedure: CD8+ T cells from murine spleen and cDC1 from PyMT tumors treated in vivo with anti-IL-38 antibodies were isolated by FACS-sorting. CD8+ T cells and cDC1 were co-cultured at a ratio of 1:40 in the T-cell medium. Cells were pre-incubated with either 100 nM anti-IL-38 or 100 nM IgG isotype control, activated with mouse T-cell activator CD3/CD28 Dynabeads (Thermo Fisher Scientific) and supplemented with 10 ng/mL rm IL-2 (PrepoTech) at days 0, 2 and 5 and 50 μM β-mercaptoethanol daily. For the Notch signaling blockade, 5 µM γ-secretase inhibitor DAPT (Abcam) was added daily. For CD8+ T cell culture, 100 ng/mL rm IL-38 (AdipoGen) was added daily. Supernatants were collected for cytokine determination at days 3, 5 and 7 and cell proliferation was analyzed by flow cytometry.
To measure the cytokines in PyMT tumors and cell culture supernatants, Cytometric Bead Array Flex Sets (BD Biosciences) were used for murine IL-17A and IFN-γ. The samples were acquired via FACS and analyzed with FlowJo Software V.10 (Tree Star).

PyMT tumors [1] = assay: Therapeutic model of chemoresistance in PyMT mice (doxorubicin with or without anti-IL-38); type: in vivo, mouse
Excerpt: The C57BL/6N IL-38 knockout (KO) strain was previously described.[10] For the polyoma virus middle T oncoprotein (PyMT) model, IL-38 KO mice were crossed with the PyMT mammary carcinoma strain, previously bred into a C57BL/6 background.[19] Only female PyMT mice were used. Tumor development in PyMT wildtype (WT) versus IL-38 KO mice was monitored once a week for up to 8 weeks, starting at 12 weeks using electronic calipers. For IL-38 neutralization, PyMT WT mice were intraperitoneally (i.p.) injected with 100 µg of either anti-IL-38 antibody (e04, in-house generated) or IgG1 (Human IgG1, Bio X Cell) isotype control. […] The treatment started at week 13 and tumor growth was monitored once a week. Group sizes were determined based on prior experience with the model. […]
(§1) For preparing single-cell suspensions, PyMT tumors were processed with the Tumor Dissociation Kit (Miltenyi Biotec) and gentleMACS Dissociator (Miltenyi Biotec) according to standard protocols. […] Samples were acquired with an FACSymphony A5 or FACSymphony S6 flow cytometer (BD Bioscience) and the data was analyzed in FlowJo software V.10 (Tree Star). […] For the gating strategy, fluorescence minus one controls were applied. […]

[2] = biological target: T1, mIL-38-Avi (murine IL-38 with Avi tag) (Mus musculus, UniProt Q8R459); assay: BLI; Octet RED96; mIL-38-Avi immobilised on streptavidin biosensors at 2 µg/mL; Fab from 250 to 7.8 nM in 1:1 dilution steps; 150 mM NaCl, 50 mM Tris-HCl pH 7.5, 0.1% BSA, 0.02% Tween 20; 1:1 analyte model with global fit; conditions: both partners purified
T1 construct: interleukin-38 (IL-38, IL-1 family member 10), mouse; PDB 8Q3J holds mIL-38 and may show the limits of the construct; also called mouse IL-38

PyMT tumors [3] = assay: IL-38 neutralization in PyMT mammary carcinoma model; type: in vivo, mouse
Excerpt: The C57BL/6N IL-38 knockout (KO) strain was previously described.[10] For the polyoma virus middle T oncoprotein (PyMT) model, IL-38 KO mice were crossed with the PyMT mammary carcinoma strain, previously bred into a C57BL/6 background.[19] Only female PyMT mice were used. Tumor development in PyMT wildtype (WT) versus IL-38 KO mice was monitored once a week for up to 8 weeks, starting at 12 weeks using electronic calipers. For IL-38 neutralization, PyMT WT mice were intraperitoneally (i.p.) injected with 100 µg of either anti-IL-38 antibody (e04, in-house generated) or IgG1 (Human IgG1, Bio X Cell) isotype control. For CD8+ T cell depletion, PyMT WT mice were injected with 100 µg of anti-IL-38 antibody (e04) in combination with either 250 µg of anti-CD8 antibody (anti-mouse CD8α, Bio X Cell) or IgG2b (rat IgG2b, Bio X Cell) isotype control. In both experiments, the treatment started once the first tumor reached a size of 0.6 cm in diameter. The antibodies were injected once a week for 5 weeks. In the therapeutic model of chemoresistance, PyMT WT mice were i.p. injected with 5 mg/kg of doxorubicin (Teva Pharma) in combination with either IgG1 isotype control or anti-IL-38 antibody. The mice were treated with five once-weekly cycles of chemotherapy once the first tumor reached a size of 1.0 cm in diameter. For γδ T-cell receptor (TCR) neutralization, mice were separated into four groups, in which PyMT WT and IL-38 KO mice were treated with either anti-γδ TCR antibody (UC7-13D5, Bio X Cell) or IgG (polyclonal Armenian hamster, Bio X Cell) isotype control once a week for 5 weeks. Mice were i.p. injected once with 500 µg of antibodies, followed by 4 weekly injections of 200 µg.[20] The treatment started at week 13 and tumor growth was monitored once a week. Group sizes were determined based on prior experience with the model. No exclusion criteria were defined and no animals were excluded. Due to the nature of the model (treatment start for every single animal depends on individual parameters), simple randomization (no confounder minimization) was done and the experimenters were not blinded. Data analysis was done in a blinded manner. Animals were housed in groups at the Zentrale Forschungseinrichtung (animal testing facility), Faculty of Medicine, Goethe University Frankfurt. […]
as §1

[4] = biological target: T1, mIL-38-Avi (murine IL-38 with Avi tag); assay: BLI; Octet RED96; mIL-38-Avi immobilised on streptavidin biosensors at 2 µg/mL; IgG from 250 to 7.8 nM in 1:1 dilution steps; 150 mM NaCl, 50 mM Tris-HCl pH 7.5, 0.1% BSA, 0.02% Tween 20; 1:2 bivalent model; conditions: both partners purified
murine IL-38 = biological target: T2, murine IL-38 (Mus musculus, UniProt Q8R459); assay: Neutralization of IL-38 effect on IL-17 production by splenic γδ T cells; type: cell-based; conditions: γδ T cells on anti-CD3 plates, IL-1 and IL-23 + IL-38 and Fab, supernatants after 5 days
T2 construct: purchased AdipoGen AG-40B-0101-C010
T2 sequence (Q8R459 1-152): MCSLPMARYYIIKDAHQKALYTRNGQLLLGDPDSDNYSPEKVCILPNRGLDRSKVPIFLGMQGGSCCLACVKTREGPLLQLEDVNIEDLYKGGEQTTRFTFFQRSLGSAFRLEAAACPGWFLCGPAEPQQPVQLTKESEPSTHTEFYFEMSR
Procedure: Figure 2 IL-38 neutralization slows down tumor development and increases T-cell infiltrates into tumors. (A) Kinetic analysis and dissociation constants (Kd) of Fabs e04 and h06 selected by phage display binding to mouse IL-38 determined by biolayer interferometry. (B) Mouse splenic γδ T cells were seeded on anti-CD3 coated plates and treated with IL-1 and IL-23 + IL-38 and Fab fragments putatively recognizing […] murine IL-38. IL-17 levels in supernatants were analyzed after 5 days. Unrelated Fab fragments c05 and d09 were used as negative controls. Data are from four independent experiments. (C) SDS-PAGE analysis of purified e04 IgG. (D) Binding profile of e04 IgG and mouse IL-38 determined by biolayer interferometry. (E) Crystal structure of Fab E04 binding to recombinant IL-38. […] (F) Tumor growth was monitored when the first tumor reached 0.6 cm in diameter. […] (I) The overall immune cell profile (n=6), (J) γδ T-cell subsets (n=5–6) and (K) intracellularly produced cytokines (n=10–11) were determined by flow cytometry after 5 weeks of treatment. (L) Representative images of PyMT tumors stained for CD8, CD4 and CD3 and (M) quantification of indicated cells is shown. […] Data are shown as means±SEM. *p<0.05, **p<0.01, ***p<0.001; p values were calculated using unpaired multiple t-tests with FDR correction. […]

C[C@H](NC(=O)Cc1cc(F)cc(F)c1)C(=O)N[C@H](C(=O)OC(C)(C)C)c1ccccc1 [DAPT]
cDC1-induced IFN-γ production by CD8+ T cells (CD8+ T cells; cytometric bead array days 3, 5 and 7): strongly inhibited | cDC1-induced proliferation of CD8+ T cells (CD8+ T cells; flow cytometry at day 7): strongly inhibited

COc1cccc2c1C(=O)c1c(O)c3c(c(O)c1C2=O)C[C@@](O)(C(=O)CO)C[C@@H]3O[C@H]1C[C@H](N)[C@H](O)[C@H](C)O1 [doxorubicin]
IL-38 expression in the tumor (PyMT tumors [1]; Il1f10 mRNA by quantitative PCR, PyMT WT mice): increased IL-38 expression in the tumor | Tumor progression (PyMT tumors [1]; late-stage setting, start at tumor size 1 cm, doxorubicin 5 mg/kg i.p., five once-weekly cycles, antibody 100 µg/mouse): did not

B1: Fab e04 (Fab, V domains shown)
VH: EVQLVESGGGLVQPGGSLRLSCAASGFSFSSSSIHWVRQAPGKGLEWVASISPYYSYTSYADSVKGRFTISADTSKNTAYLQMNSLRAEDTAVYYCARTVRGSKKPYFSGWAMDYWGQGTLVTVSS
VL: DIQMTQSPSSLSASVGDRVTITCRASQSYYSYVAWYQQKPGKAPKLLIYSASSLYSGVPSRFSGSRSGTDFTLTISSLQPEDFATYYCQQVFAPITFGQGTKVEIK
notes: heavy chain (Fd) of Fab e04 from a synthetic Fab-phage library; light chain of Fab e04 from a synthetic Fab-phage library; Selected by phage display against murine IL-38; the library is described in the online supplemental methods; also called anti-IL-38 Fab fragment; source: E. coli BL21, purified (HiTrap Protein G)
Kd [2]: 6.7 nM

B2: IgG e04: Fab e04 converted into full-length IgG1 format; in-house generated IL-38 neutralizing antibody (antibody, V domains shown)
VH: EVQLVESGGGLVQPGGSLRLSCAASGFSFSSSSIHWVRQAPGKGLEWVASISPYYSYTSYADSVKGRFTISADTSKNTAYLQMNSLRAEDTAVYYCARTVRGSKKPYFSGWAMDYWGQGTLVTVSS
VL: DIQMTQSPSSLSASVGDRVTITCRASQSYYSYVAWYQQKPGKAPKLLIYSASSLYSGVPSRFSGSRSGTDFTLTISSLQPEDFATYYCQQVFAPITFGQGTKVEIK
Expression of the PD-1/PD-L1 immune checkpoint in tumors (PyMT tumors [3]; CD8+ T cells, macrophages, tumor cells, flow cytometry): did not observe an impact | Tumor development (PyMT tumors [3]; PyMT WT mice, 100 µg i.p. once a week for 5 weeks, start at first tumor 0.6 cm, vs IgG1 isotype): marked delay in tumor development | Abundance of CD8+ T cells and γδ T cells in tumors (PyMT tumors [3]; flow cytometry after 5 weeks of treatment, vs IgG1 isotype): increased abundance of CD8+ T cells and γδ T cells in the tumors | Cytokine-producing γδ T cells in tumors (PyMT tumors [3]; intracellular cytokine staining, flow cytometry, after 5 weeks of treatment): IFN-γ rather than IL-17-producing γδ T cells were increased

B3: e04 IgG (Fab e04 converted into full-length IgG1) (antibody, V domains shown)
VH: EVQLVESGGGLVQPGGSLRLSCAASGFSFSSSSIHWVRQAPGKGLEWVASISPYYSYTSYADSVKGRFTISADTSKNTAYLQMNSLRAEDTAVYYCARTVRGSKKPYFSGWAMDYWGQGTLVTVSS
VL: DIQMTQSPSSLSASVGDRVTITCRASQSYYSYVAWYQQKPGKAPKLLIYSASSLYSGVPSRFSGSRSGTDFTLTISSLQPEDFATYYCQQVFAPITFGQGTKVEIK
notes: variable part as the heavy chain of m2 (PDB 8Q3J), converted into full-length IgG1 format; as the light chain of m2 (PDB 8Q3J); IgG1; also called IgG e04; anti-IL-38 antibody (e04); source: Expi293F, transfected, purified from supernatant (HiTrap Protein G)
Kd [4]: 0.68 nM

B4: Fab e04: Fab fragment selected by phage display from a synthetic Fab-phage library, binds murine IL-38 (antibody, V domains shown)
VH: EVQLVESGGGLVQPGGSLRLSCAASGFSFSSSSIHWVRQAPGKGLEWVASISPYYSYTSYADSVKGRFTISADTSKNTAYLQMNSLRAEDTAVYYCARTVRGSKKPYFSGWAMDYWGQGTLVTVSS
VL: DIQMTQSPSSLSASVGDRVTITCRASQSYYSYVAWYQQKPGKAPKLLIYSASSLYSGVPSRFSGSRSGTDFTLTISSLQPEDFATYYCQQVFAPITFGQGTKVEIK
Effect on IL-38 inhibition of IL-17 production by γδ T cells (murine IL-38): neutralized the inhibitory effect of IL-38 on IL-17 production by γδ T cells

From PMC11367332, “Neutralizing IL-38 activates γδ T cell-dependent antitumor immunity and sensitizes for chemotherapy” (Journal for Immunotherapy of Cancer, 2024)
